Reference: patent US20210163946A1

Molecular target: human C5a receptor (human) (UniProt P21730)
Assay: cell-based or functional assay

Chain of human C5a receptor (human) (P21730 whole entry): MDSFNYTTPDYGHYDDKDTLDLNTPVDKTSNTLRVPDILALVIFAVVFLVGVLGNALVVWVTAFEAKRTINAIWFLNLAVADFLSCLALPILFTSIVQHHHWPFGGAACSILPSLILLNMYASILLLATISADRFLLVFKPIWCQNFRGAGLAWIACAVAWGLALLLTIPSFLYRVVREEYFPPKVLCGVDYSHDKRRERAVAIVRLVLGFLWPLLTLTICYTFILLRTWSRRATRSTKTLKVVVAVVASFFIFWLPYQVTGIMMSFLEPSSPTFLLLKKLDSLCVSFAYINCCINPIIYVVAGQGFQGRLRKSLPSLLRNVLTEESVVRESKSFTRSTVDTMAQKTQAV

| half-maximal effective concentration (EC50) of chemotaxis of BA/F3/huC5aR cells | Substance |
| --- | --- |
| 300 pM | mouse C5a (from UniProt P06684 679-755) (ligand) |
| 100 pM | recombinant human C5a (from UniProt P01031 678-751) (ligand) |
